Patent US20130236459A1 (MERRIMACK PHARMACEUTICALS, published 2013)
Read-outs that look alike come from different tables or passages of the source.

Assays:
[1] = molecular target: T1, IGF-1R (receptor for insulin-like growth factor 1), endogenous on human tumor cell lines (human, UniProt P08069 31-1367); test: cell-based or functional assay
[2] = molecular target: T1, IGF-1R (receptor for insulin-like …); test: cell-based or functional assay; remark: listed apart in the source
[3] = molecular target: T1, IGF-1R (receptor for insulin-like …); test: cell-based or functional assay; remark: listed apart in the source
[4] = molecular target: T1, IGF-1R (receptor for insulin-like …); test: cell-based or functional assay; remark: listed apart in the source
[5] = molecular target: T1, IGF-1R (receptor for insulin-like …); test: cell-based or functional assay; remark: listed apart in the source
[6] = molecular target: T2, ErbB3 (HER3), endogenous on human tumor cell lines (human, UniProt P21860 20-1342); test: cell-based or functional assay
[7] = molecular target: T2, ErbB3 (HER3), endogenous on human tumor …; test: cell-based or functional assay; remark: listed apart in the source
[8] = molecular target: T2, ErbB3 (HER3), endogenous on human tumor …; test: cell-based or functional assay; remark: listed apart in the source
[9] = molecular target: T2, ErbB3 (HER3), endogenous on human tumor …; test: cell-based or functional assay; remark: listed apart in the source
[10] = molecular target: T2, ErbB3 (HER3), endogenous on human tumor …; test: cell-based or functional assay; remark: listed apart in the source
[11] = molecular target: T1, IGF-1R (receptor for insulin-like …); test: cell-based or functional assay; remark: listed apart in the source
[12] = molecular target: T1, IGF-1R (receptor for insulin-like …); test: summary sentence of Example 3 (FACS on cells)
Protocol: (§1) 1×10⁵ MCF7 cells or 1×10⁵ ADRr cells are incubated at room temperature for 2 hours with each of ELI-7, ILE-10 and ILE-12, two anti-ErB3 antibodies and one anti-IGF-1R antibody at 2 uM, followed by 12 subsequent 3-fold dilutions. Then using goat anti-HSA-Alexa647 conjugated antibody as the detection antibody, cells are incubated on ice for 40 minutes. Cell binding dissociation constants (measures of binding affinities) of the antibodies on MCF7 and ADRr cells are assessed by FACS and apparent dissociation constants are determined for each protein. The following results were obtained (see also FIGS. 14A and 14B): […]

[13] = molecular target: T2, ErbB3 (HER3), endogenous on human tumor …; test: summary sentence of Example 3 (FACS on cells)
Protocol: as §1

T1 sequence (P08069 31-1367): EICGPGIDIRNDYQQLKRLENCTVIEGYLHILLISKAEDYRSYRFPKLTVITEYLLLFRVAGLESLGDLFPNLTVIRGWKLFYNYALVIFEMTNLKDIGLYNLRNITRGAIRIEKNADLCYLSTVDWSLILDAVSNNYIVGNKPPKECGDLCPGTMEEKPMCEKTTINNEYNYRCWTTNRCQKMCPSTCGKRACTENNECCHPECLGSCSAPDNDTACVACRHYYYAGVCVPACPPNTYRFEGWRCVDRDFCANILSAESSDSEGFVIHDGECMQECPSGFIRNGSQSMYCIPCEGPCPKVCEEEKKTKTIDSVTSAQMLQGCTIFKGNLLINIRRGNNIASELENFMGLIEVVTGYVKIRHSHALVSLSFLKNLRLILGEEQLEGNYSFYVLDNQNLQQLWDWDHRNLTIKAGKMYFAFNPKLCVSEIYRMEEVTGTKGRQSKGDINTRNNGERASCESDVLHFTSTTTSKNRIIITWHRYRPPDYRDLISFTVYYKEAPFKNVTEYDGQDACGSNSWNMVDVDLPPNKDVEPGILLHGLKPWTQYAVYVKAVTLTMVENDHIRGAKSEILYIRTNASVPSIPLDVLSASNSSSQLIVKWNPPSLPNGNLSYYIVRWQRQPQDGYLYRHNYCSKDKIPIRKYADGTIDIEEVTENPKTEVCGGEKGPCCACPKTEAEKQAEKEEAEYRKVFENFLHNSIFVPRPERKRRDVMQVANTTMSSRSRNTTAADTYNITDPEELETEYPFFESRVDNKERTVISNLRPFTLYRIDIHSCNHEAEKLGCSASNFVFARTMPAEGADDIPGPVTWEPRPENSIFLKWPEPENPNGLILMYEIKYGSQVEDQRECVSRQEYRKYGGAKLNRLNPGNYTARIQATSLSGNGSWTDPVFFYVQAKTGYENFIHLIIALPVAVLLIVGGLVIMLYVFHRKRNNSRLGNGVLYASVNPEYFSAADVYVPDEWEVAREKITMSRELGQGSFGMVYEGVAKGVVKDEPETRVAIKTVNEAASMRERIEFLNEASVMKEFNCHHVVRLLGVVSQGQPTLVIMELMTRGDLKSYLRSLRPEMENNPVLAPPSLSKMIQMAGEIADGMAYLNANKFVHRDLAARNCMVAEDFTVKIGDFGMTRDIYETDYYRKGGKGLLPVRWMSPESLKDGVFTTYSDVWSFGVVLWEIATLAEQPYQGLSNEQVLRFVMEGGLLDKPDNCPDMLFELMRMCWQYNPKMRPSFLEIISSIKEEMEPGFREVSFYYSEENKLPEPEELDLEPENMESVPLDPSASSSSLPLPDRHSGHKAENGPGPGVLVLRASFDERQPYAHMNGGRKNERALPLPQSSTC
T2 sequence (P21860 20-1342 limits assumed): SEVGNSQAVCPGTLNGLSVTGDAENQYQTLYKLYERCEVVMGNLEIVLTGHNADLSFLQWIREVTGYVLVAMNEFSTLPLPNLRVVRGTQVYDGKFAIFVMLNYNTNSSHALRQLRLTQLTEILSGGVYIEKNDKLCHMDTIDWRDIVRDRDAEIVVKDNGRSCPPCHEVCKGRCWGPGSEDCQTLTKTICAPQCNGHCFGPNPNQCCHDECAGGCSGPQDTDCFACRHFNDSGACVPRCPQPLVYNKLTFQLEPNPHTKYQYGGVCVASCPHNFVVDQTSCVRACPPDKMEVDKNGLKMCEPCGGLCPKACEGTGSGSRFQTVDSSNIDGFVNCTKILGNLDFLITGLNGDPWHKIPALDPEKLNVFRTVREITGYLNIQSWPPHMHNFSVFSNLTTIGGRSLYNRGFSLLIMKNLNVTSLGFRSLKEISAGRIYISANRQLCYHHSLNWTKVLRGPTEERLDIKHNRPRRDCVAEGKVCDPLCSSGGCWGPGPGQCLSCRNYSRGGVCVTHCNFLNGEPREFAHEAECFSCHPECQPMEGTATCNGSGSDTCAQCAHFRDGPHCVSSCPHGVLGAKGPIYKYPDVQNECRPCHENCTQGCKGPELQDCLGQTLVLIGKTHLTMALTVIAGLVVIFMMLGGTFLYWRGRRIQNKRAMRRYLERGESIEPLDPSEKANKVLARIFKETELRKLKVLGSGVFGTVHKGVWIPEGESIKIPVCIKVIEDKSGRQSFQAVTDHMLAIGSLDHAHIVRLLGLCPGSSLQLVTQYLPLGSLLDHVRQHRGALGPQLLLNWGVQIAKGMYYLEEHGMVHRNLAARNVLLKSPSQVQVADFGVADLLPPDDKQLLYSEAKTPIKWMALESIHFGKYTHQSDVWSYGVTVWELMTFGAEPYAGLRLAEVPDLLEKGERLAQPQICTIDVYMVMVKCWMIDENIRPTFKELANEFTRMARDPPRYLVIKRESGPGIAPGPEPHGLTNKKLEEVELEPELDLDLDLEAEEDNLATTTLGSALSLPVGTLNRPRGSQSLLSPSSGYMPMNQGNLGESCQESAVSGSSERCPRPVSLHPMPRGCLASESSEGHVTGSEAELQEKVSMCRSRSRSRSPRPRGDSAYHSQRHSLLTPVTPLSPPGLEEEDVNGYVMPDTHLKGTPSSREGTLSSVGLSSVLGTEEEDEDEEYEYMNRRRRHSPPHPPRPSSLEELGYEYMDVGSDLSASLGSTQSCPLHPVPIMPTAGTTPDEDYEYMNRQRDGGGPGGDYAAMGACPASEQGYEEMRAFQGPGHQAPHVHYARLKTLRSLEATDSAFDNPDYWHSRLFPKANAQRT

B1: ANTI-IGF-1R Ab# A (ganitumab) (antibody, V domains shown)
VH: QVQLQESGPGLVKPSGTLSLTCAVSGGSISSSNWWSWVRQPPGKGLEWIGEIYHSGSTNYNPSLKSRVTISVDKSKNQFSLKLSSVTAADTAVYYCARWTGRTDAFDIWGQGTMVTVSS
VL: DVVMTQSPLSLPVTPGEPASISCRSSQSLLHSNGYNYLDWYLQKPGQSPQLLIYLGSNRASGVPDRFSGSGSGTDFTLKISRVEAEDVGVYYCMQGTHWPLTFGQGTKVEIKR
- pAKT IC50 (BxPC-3) [1]: 8e-11 M (inferred)
- pIGF1R IC50 (BxPC-3) [1]: 1.6e-09 M (inferred)
- pAKT IC50 (BxPC-3, IGF1 40 ng/ml) [2]: 7.4e-09 M
- pAKT IC50 (BxPC-3, IGF1 400 ng/ml) [2]: 9.1e-09 M
- pIGF1R IC50 (BxPC-3, IGF1 40 ng/ml) [2]: 7.8e-10 M
- pIGF1R IC50 (BxPC-3, IGF1 400 ng/ml) [2]: 2.5e-10 M
- pAKT IC50 (BxPC-3 50% ErbB3 KD) [3]: 1.3e-07 M
- pAKT IC50 (BxPC-3 50% IGF1R KD) [3]: 4e-08 M
- pAKT IC50 (BxPC-3 Vector Control) [3]: 2.1e-08 M
- pAKT IC50 (BxPC-3) [4]: 2.6e-10 M (inferred)
- pIGF-1R IC50 (BxPC-3) [4]: 1.5e-10 M (inferred)
- % IGF1R Downregulation (A549, 24 h) [5]: 57%
- % IGF1R Downregulation (BxPC-3, 24 h) [5]: 51%

B2: ANTI-ErbB3 Ab# A (antibody, V domains shown)
VH: QVQLQQWGAGLLKPSETLSLTCAVYGGSFSGYYWSWIRQPPGKGLEWIGEINHSGSTNYNPSLKSRVTISVETSKNQFSLKLSSVTAADTAVYYCARDKWTWYFDLWGRGTLVTVSS
VL: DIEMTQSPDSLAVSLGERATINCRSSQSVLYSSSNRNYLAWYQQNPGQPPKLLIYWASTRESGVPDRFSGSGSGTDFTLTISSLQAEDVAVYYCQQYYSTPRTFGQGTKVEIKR
- pAKT IC50 (BxPC-3) [6]: 3.5e-10 M (inferred)
- pErbB3 IC50 (BxPC-3) [6]: 9.2e-11 M (inferred)
- pAKT IC50 (BxPC-3, HRG 20 ng/ml) [7]: 3.06e-10 M
- pAKT IC50 (BxPC-3, HRG 200 ng/ml) [7]: 3.26e-10 M
- pErbB3 IC50 (BxPC-3, HRG 20 ng/ml) [7]: 2.41e-10 M
- pErbB3 IC50 (BxPC-3, HRG 200 ng/ml) [7]: 1.98e-10 M
- pAKT IC50 (BxPC-3) [8]: 3.9e-10 M (inferred)
- pAKT IC50 (DU145) [8]: 2.8e-10 M (inferred)
- pErbB3 IC50 (BxPC-3) [8]: 5.1e-11 M (inferred)
- pErbB3 IC50 (DU145) [8]: 8.2e-11 M (inferred)
- pAKT IC50 (BxPC-3 50% ErbB3 KD) [9]: 2.8e-10 M
- pAKT IC50 (BxPC-3 50% IGF1R KD) [9]: 1.6e-09 M
- pAKT IC50 (BxPC-3 Vector Control) [9]: 2.5e-09 M
- pAKT IC50 (BxPC-3) [10]: 5.7e-09 M (inferred)
- pErbB3 IC50 (BxPC-3) [10]: 4.3e-10 M (inferred)

B3: Anti-IGF-1R Ab# B (cixutumumab) (antibody, V domains shown)
VH: EVQLVQSGAEVKKPGSSVKVSCKASGGTFSSYAISWVRQAPGQGLEWMGGIIPIFGTANYAQKFQGRVTITADKSTSTAYMELSSLRSEDTAVYYCARAPLRFLEWSTQDHYYYYYMDVWGKGTTVTVSS
VL: SSELTQDPAVSVALGQTVRITCQGDSLRSYYATWYQQKPGQAPILVIYGENKRPSGIPDRFSGSSSGNTASLTITGAQAEDEADYYCKSRDGSGQHLVFGGGTKLTVLG
- pAKT IC50 (BxPC-3) [11]: 1.4e-08 M (inferred)
- pAKT IC50 (DU145) [11]: 9.8e-09 M (inferred)
- pIGF-1R IC50 (BxPC-3) [11]: 2.4e-09 M (inferred)
- pIGF-1R IC50 (DU145) [11]: 9.1e-10 M (inferred)

B4: ILE-10 (bispecific antibody, human IgG2, kappa)
heavy: EVQLLESGGGLVQPGGSLRLSCAASGFTFSVYPMHWVRQAPGKGLEWVSSISSSGGATRYADSVKGRFTISRDNSKNTLYLQMNSLRAEDTAVYYCAKDFYDILTGNAFDIWGQGTMVTVSSASTKGPSVFPLAPCSRSTSESTAALGCLVKDYFPEPVTVSWNSGALTSGVHTFPAVLQSSGLYSLSSVVTVPSSNFGTQTYTCNVDHKPSNTKVDKTVERKCCVECPPCPAPPVAGPSVFLFPPKPKDTLMISRTPEVTCVVVDVSHEDPEVQFNWYVDGVEVHNAKTKPREEQFNSTFRVVSVLTVVHQDWLNGKEYKCKVSNKGLPAPIEKTISKTKGQPREPQVYTLPPSREEMTKNQVSLTCLVKGFYPSDIAVEWESNGQPENNYKTTPPMLDSDGSFFLYSKLTVDKSRWQQGNVFSCSVMHEALHNHYTQKSLSLSPGKGGGGSGGGGSGGGGSLQEVQLLESGGGLVQPGGSLRLSCAASGFTFSAYNMRWVRQAPGKGLEWVSVIYPSGGATRYADSVKGRFTISRDNSKNTLYLQMNSLRAEDTAVYYCARGYYYYGMDVWGQGTLVTVSSASTGGGGSGGGGSGGGGSQSVLTQPPSASGTPGQRVTISCSGSDSNIGRNYIYWYQQFPGTAPKLLIYRNNQRPSGVPDRISGSKSGTSASLAISGLRSEDEAEYHCGTWDDSLSGPVFGGGTKLTVLS
light: DIQMTQSPSSFSASTGDRVTITCRASQGISSYLAWYQQKPGKAPKLLIYAASTLQSGVPSRFSGSGSGTDFTLTISSLQPEDSATYYCQQYFTFPLTFGGGTKVEIKRTVAAPSVFIFPPSDEQLKSGTASVVCLLNNFYPREAKVQWKVDNALQSGNSQESVTEQDSKDSTYSLSSTLTLSKADYEKHKVYACEVTHQGLSSPVTKSFNRGEC
notes: anti-IGF-1R/anti-ErbB3 IgG2-(scFv)2: anti-IGF-1R IgG2 (module 5-7), anti-ErbB3 scFv (module 2-3); also called 14F; 14f
- binding result [12]: binds
- binding result [13]: binds
